Experimental data taken from patent publication US20210238260A1 (published 2021).
Numbering of substitutions follows the chain as printed. Names may count otherwise.

T1: Factor VIIIa (FVIIIa), from recombinant FVIII (Kogenate FS; Bayer healthcare) activated with alpha-thrombin (UniProt P00451 20-2351)
T1 sequence (looked up): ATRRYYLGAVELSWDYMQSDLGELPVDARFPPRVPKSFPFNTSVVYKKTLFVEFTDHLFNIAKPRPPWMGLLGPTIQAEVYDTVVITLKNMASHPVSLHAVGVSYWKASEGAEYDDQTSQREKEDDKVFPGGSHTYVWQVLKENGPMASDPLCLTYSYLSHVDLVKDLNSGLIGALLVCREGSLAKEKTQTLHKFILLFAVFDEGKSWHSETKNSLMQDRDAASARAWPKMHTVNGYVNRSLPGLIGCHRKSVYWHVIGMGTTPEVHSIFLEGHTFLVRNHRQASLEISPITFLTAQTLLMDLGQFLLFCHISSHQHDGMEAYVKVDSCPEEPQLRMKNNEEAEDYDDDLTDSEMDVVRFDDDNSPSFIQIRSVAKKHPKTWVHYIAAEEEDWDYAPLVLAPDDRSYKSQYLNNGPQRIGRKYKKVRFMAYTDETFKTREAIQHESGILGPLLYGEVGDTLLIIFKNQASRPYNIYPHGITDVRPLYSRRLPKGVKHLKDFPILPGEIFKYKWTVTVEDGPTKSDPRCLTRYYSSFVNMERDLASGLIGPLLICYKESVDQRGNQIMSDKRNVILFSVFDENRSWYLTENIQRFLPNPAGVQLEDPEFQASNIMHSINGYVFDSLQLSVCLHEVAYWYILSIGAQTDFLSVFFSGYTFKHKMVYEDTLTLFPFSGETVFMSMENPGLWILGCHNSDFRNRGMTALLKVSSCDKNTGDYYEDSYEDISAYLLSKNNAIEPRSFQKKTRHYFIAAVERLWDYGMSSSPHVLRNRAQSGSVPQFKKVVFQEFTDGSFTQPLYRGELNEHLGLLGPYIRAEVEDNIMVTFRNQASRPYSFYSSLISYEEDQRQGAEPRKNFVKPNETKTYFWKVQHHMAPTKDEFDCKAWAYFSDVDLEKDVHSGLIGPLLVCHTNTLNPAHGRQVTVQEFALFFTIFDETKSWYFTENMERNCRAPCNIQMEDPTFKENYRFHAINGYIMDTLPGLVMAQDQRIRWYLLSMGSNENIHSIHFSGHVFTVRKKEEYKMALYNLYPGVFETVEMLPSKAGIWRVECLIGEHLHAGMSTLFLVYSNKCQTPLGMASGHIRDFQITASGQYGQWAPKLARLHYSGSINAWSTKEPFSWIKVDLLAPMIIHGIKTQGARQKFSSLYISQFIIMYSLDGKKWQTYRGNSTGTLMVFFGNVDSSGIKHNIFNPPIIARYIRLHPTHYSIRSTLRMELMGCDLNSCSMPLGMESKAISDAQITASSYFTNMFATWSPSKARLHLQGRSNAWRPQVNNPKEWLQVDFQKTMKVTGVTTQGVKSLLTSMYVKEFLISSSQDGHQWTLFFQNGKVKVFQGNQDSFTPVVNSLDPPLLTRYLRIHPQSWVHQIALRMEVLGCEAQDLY

T2: Factor VIIIa (recombinant FVIII, Kogenate FS, activated with alpha-thrombin) (UniProt P00451 20-2351)
T2 construct: also called FVIIIa
T2 sequence (looked up): T1 sequence (looked up)

B1: FIXa variant A103N/N105S/K247N/N249S/R318Y/R338E/R403E/E410N (enzyme)
light: YNSGKLEEFVQGNLERECMEEKCSFEEAREVFENTERTTEFWKQYVDGDQCESNPCLNGGSCKDDINSYECWCPFGFEGKNCELDVTCNIKNGRCEQFCKNSNDSKVVCSCTEGYRLAENQKSCEPAVPFPCGRVSVSQTSKLTR
heavy: VVGGEDAKPGQFPWQVVLNGKVDAFCGGSIVNEKWIVTAAHCVETGVKITVVAGEHNIEETEHTEQNRSVIRIIPHHNYNAAINKYNHDIALLELDEPLVLNSYVTPICIADKEYTNIFLKFGSGYVSGWGRVFHKGYSALVLQYLRVPLVDRATCLESTKFTIYNNMFCAGFHEGGRDSCQGDSGGPHVTEVEGTSFLTGIISWGEECAMKGKYGIYTKVSEYVNWIKNKTKLT
B2: FIXa variant K228N/K247N/N249S (enzyme)
light: B1 light with N103A, S105N
heavy: B1 heavy with K48N, Y138R, E158R, E223R, N230E
notes: also called K63N/K82N/N84S
B3: FIXa variant K247N/N249S/N260S (enzyme)
light: B1 light with N103A, S105N
heavy: B1 heavy with N80S, Y138R, E158R, E223R, N230E
notes: also called K82N/N84S/N95S
B4: FIXa variant K247N/N249S/N260S/R318Y/R338E/R403E/E410N (enzyme)
light: B1 light with N103A, S105N
heavy: B1 heavy with N80S
notes: also called K82N/N84S/N95S/R150Y/R170E/R233E/E240N
B5: FIXa variant R318Y/R338E/E410S (enzyme)
light: B1 light with N103A, S105N
heavy: B1 heavy with N67K, S69N, E223R, N230S
notes: also called R150Y/R170E/E240S
B6: FIXa variant I251S/R318Y/R338E/R403E/E410N (enzyme)
light: B1 light with N103A, S105N
heavy: B1 heavy with N67K, S69N, I71S
notes: also called I86S/R150Y/R170E/R233E/E240N
B7: FIXa variant R318Y/R338E/E410N/T412V (enzyme)
light: B1 light with N103A, S105N
heavy: B1 heavy with N67K, S69N, E223R, T232V
notes: also called R150Y/R170E/E240N/T242V
B8: FIXa variant D104N/K106S/I251S/R318Y/R338E/R403E/E410N (enzyme)
light: B1 light with N103A, D104N, S105N, K106S
heavy: B1 heavy with N67K, S69N, I71S
B9: FIXa variant I251S/R318Y/R338E/E410N (enzyme)
light: B1 light with N103A, S105N
heavy: B1 heavy with N67K, S69N, I71S, E223R
notes: also called I86S/R150Y/R170E/E240N; I251S/R318Y/E410N/R338E
B10: FIXa variant R318Y/R338E/N346D/R403E/E410N (enzyme)
light: B1 light with N103A, S105N
heavy: B1 heavy with N67K, S69N, N166D
notes: also called R150Y/R170E/N178D/R233E/E240N
B11: FIXa variant K228N/K247N/N249S/R318Y/R338E/R403E/E410N (enzyme)
light: B1 light with N103A, S105N
heavy: B1 heavy with K48N
notes: also called K63N/K82N/N84S/R150Y/R170E/R233E/E240N
B12: FIXa variant D104N/K106S/I251S/R318Y/R338E/E410N (enzyme)
light: B1 light with N103A, D104N, S105N, K106S
heavy: B1 heavy with N67K, S69N, I71S, E223R
B13: FIXa variant R318Y/R338E/N346Y/R403E/E410N (enzyme)
light: B1 light with N103A, S105N
heavy: B1 heavy with N67K, S69N, N166Y
notes: also called R150Y/R170E/N178Y/R233E/E240N
B14: FIXa variant D104N/K106S/K247N/N249S/R318Y/R338E/R403E/E410N (enzyme)
light: B1 light with N103A, D104N, S105N, K106S
heavy: B1 heavy
B15: FIXa variant R318Y/R338E/R403E/E410N/T412V (enzyme)
light: B1 light with N103A, S105N
heavy: B1 heavy with N67K, S69N, T232V
notes: also called R150Y/R170E/R233E/E240N/T242V
B16: FIXa-Y155F/R318Y/R338E/T343R/E410N (enzyme)
chain 1: B1 light with N103A, S105N
chain 2: B1 heavy with N67K, S69N, T163R, E223R
B17: FIXa-R318Y/R338E/T343R/E410N (enzyme)
chain 1: B1 light with N103A, S105N
chain 2: B1 heavy with N67K, S69N, T163R, E223R
notes: also called R150Y/R170E/T175R/E240N (chymotrypsin numbering)
B18: FIXa-R318Y/R338E/T343R (enzyme)
chain 1: B1 light with N103A, S105N
chain 2: B1 heavy with N67K, S69N, T163R, E223R, N230E
notes: also called R150Y/R170E/T175R (chymotrypsin numbering); CB2679d
B19: FIXa-Y155F/K247N/N249S/R318Y/R338E/T343R (enzyme)
chain 1: B1 light with N103A, S105N
chain 2: B1 heavy with T163R, E223R, N230E
B20: FIXa-K247N/N249S/R318Y/R338E/T343R (enzyme)
chain 1: B1 light with N103A, S105N
chain 2: B1 heavy with T163R, E223R, N230E
notes: also called K82N/N84S/R150Y/R170E/T175R (chymotrypsin numbering)
B21: FIXa-K228N/K247N/N249S/R318Y/R338E/T343R/R403E/E410N (enzyme)
chain 1: B1 light with N103A, S105N
chain 2: B1 heavy with K48N, T163R
notes: also called K63N/K82N/N84S/R150Y/R170E/T175R/R233E/E240N (chymotrypsin numbering)
B22: FIXa-R338E/T343R/R403E/E410N (enzyme)
chain 1: B1 light with N103A, S105N
chain 2: B1 heavy with N67K, S69N, Y138R, T163R
notes: also called R170E/T175R/R233E/E240N (chymotrypsin numbering)
B23: FIXa-Y155F/R338E/T343R/E410N (enzyme)
chain 1: B1 light with N103A, S105N
chain 2: B1 heavy with N67K, S69N, Y138R, T163R, E223R
B24: FIXa-Y155F/R318Y/R338E/T343R (enzyme)
chain 1: B1 light with N103A, S105N
chain 2: B1 heavy with N67K, S69N, T163R, E223R, N230E
B25: FIXa-R338E/T343R/R403E (enzyme)
chain 1: B1 light with N103A, S105N
chain 2: B1 heavy with N67K, S69N, Y138R, T163R, N230E
notes: also called R170E/T175R/R233E (chymotrypsin numbering)
B26: FIXa-R338E/T343R/E410N (enzyme)
chain 1: B1 light with N103A, S105N
chain 2: B1 heavy with N67K, S69N, Y138R, T163R, E223R
notes: also called R170E/T175R/E240N (chymotrypsin numbering)
B27: FIXa-Y155F/R338E/T343R/R403E/E410N (enzyme)
chain 1: B1 light with N103A, S105N
chain 2: B1 heavy with N67K, S69N, Y138R, T163R
B28: FIXa-Y155F/K228N/K247N/N249S/R318Y/R338E/T343R/R403E/E410N (enzyme)
chain 1: B1 light with N103A, S105N
chain 2: B1 heavy with K48N, T163R
B29: FIXa-Y155F/R338E/T343R/R403E (enzyme)
chain 1: B1 light with N103A, S105N
chain 2: B1 heavy with N67K, S69N, Y138R, T163R, N230E
B30: FIXa variant Y155F/K247N/N249S/R318Y/R338E/R403E/E410N (enzyme)
light: B1 light with N103A, S105N
heavy: B1 heavy
B31: FIXa variant D104N/K106S/K247N/N249S/N260S (enzyme)
light: B1 light with N103A, D104N, S105N, K106S
heavy: B1 heavy with N80S, Y138R, E158R, E223R, N230E
B32: FIXa variant K247N/N249S/R318Y/R338E/R403E/E410N (enzyme)
light: B1 light with N103A, S105N
heavy: B1 heavy
notes: also called K82N/N84S/R150Y/R170E/R233E/E240N
B33: FIXa variant D104N/K106S/Y155F/K247N/N249S/N260S (enzyme)
light: B1 light with N103A, D104N, S105N, K106S
heavy: B1 heavy with N80S, Y138R, E158R, E223R, N230E

Molecular target: T1, Factor VIIIa (FVIIIa), from recombinant …
Experiment: ratio of KD-app of Catalyst Biosciences WT FIXa to KD-app of the variant, same Xase assay
Description: (§1) The activity of alpha-thrombin was then quenched by the addition of a highly specific thrombin inhibitor, hirudin, prior to initiating the assay.

Binder | KD-WT/KD-mut [fold]
B1 | 1
B2 | 0.8
B3 | 0.6
B4 | 1.5
B5 | 14.1
B6 | 1.5
B7 | 10.7
B8 | 1.7
B9 | 16.7
B10 | 0.9
B11 | 0.9
B12 | 7.7
B13 | 2.4
B14 | 1.1
B15 | 1.7

Molecular target: T2, Factor VIIIa (recombinant FVIII, …)
Experiment: functional cofactor affinity KD-app: fluorogenic FX activation (Xase) assay, FVIIIa titrated, PC/PS vesicles, saturating FX
Protocol: Reactions were monitored in a SpectraMax fluorescence plate reader for 30 min at 37° C. A standard curve of free AMC served as the conversion factor for RFU to μM in the subsequent data analysis calculations using a dose range that covered 0 μM to 100 μM AMC.

Binder | Kd [nM]
B16 | 7.4
B17 | 6.1
B18 | 9.8
B19 | 14
B20 | 14.7
B21 | 29.1
B22 | 29.4
B23 | 8.5
B24 | 8.4
B25 | 55
B26 | 7.5
B27 | 28.5
B28 | 37
B29 | 72.1

Molecular target: T1, Factor VIIIa (FVIIIa), from recombinant …
Experiment: apparent functional KD (KD-app): FX activation rate vs FVIIIa titration, fluorogenic Xase assay with PC/PS vesicles and Ca2+
Description: as §1

Binder | Kd [nM]
B1 | 93.1
B30 | 45.8
B2 | 113
B3 | 147
B4 | 65
B31 | 330
B5 | 6.8
B6 | 62.7
B7 | 8.9
B32 | 68.6
B8 | 54.7
B9 | 5.7
B10 | 110
B11 | 100
B12 | 12.4
B33 | 142
B13 | 39.6
B14 | 87.4
B15 | 55
